Experiments:
Experiment in all cases: SPR, antibody captured, C2 as analyte;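 note: biacore at 37 °C, anti-C2 mAbs held by immobilised goat anti-human IgG, C2 alanine or serine mutants injected, double-referenced sensorgrams fitted to a 1:1 kinetic or steady-state model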
human C2 I272A = biological target: T1, human C2 I272A (human, UniProt P06681 21-752)
T1 sequence: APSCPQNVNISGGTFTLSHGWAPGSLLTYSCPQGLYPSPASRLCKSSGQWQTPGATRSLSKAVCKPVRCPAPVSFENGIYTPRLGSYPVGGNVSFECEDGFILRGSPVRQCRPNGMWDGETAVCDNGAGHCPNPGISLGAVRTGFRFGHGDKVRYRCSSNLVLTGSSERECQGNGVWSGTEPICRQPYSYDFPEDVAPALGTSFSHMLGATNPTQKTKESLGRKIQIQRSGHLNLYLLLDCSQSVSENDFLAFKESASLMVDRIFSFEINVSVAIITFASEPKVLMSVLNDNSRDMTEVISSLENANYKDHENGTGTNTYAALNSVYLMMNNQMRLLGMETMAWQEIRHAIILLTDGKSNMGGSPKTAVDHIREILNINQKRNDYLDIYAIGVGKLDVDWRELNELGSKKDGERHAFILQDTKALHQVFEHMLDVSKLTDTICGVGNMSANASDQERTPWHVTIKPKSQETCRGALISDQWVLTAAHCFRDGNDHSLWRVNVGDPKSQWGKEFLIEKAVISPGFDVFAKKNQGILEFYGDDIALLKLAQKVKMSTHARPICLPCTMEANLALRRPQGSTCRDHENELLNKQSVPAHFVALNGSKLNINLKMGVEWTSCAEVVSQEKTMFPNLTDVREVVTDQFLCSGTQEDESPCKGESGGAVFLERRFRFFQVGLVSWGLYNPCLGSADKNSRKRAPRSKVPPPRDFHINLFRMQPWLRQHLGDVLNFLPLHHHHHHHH

human C2 E275A = biological target: T2, human C2 E275A (human, UniProt P06681 21-752)
T2 sequence: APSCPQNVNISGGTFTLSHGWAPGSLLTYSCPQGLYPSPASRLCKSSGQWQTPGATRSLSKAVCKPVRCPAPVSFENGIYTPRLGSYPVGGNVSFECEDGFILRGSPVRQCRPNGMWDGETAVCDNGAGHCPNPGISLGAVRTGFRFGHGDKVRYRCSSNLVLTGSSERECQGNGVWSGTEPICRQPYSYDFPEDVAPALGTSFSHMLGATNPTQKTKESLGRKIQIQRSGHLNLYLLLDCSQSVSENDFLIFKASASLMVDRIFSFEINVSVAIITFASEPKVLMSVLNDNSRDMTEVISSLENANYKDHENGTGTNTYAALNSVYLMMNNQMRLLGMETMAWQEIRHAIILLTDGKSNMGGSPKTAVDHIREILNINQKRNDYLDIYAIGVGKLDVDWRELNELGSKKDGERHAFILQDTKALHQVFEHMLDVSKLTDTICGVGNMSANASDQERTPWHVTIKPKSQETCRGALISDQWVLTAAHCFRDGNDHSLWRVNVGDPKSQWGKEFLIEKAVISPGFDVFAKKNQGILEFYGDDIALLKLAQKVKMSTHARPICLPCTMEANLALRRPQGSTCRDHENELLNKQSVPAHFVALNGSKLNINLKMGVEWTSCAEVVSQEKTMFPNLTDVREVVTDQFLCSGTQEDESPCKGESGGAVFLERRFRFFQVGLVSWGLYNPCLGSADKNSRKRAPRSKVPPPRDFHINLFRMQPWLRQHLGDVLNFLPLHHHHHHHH

human C2 K244A = biological target: T3, human C2 K244A (human, UniProt P06681 21-752)
T3 sequence: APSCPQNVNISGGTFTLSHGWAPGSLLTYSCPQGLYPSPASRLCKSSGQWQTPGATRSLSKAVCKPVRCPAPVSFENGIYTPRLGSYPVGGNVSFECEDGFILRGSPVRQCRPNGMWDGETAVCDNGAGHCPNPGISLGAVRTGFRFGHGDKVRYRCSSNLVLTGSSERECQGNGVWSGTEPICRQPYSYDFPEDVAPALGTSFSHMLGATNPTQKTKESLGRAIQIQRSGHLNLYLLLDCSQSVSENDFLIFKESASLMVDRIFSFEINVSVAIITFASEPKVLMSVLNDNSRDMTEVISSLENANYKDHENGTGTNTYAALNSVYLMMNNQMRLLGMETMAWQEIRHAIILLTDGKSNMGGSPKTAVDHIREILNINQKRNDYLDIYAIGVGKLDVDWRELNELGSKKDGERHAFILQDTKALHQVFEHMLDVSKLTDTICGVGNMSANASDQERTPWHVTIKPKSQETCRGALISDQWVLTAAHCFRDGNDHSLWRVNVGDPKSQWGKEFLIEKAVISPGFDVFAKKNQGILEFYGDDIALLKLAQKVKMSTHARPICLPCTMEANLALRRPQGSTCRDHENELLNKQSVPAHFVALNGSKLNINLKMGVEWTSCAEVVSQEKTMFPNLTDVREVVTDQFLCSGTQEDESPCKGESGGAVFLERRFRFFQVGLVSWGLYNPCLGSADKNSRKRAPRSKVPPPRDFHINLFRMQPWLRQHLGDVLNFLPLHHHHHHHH

human C2 V465A = biological target: T4, human C2 V465A (human, UniProt P06681 21-752)
T4 sequence: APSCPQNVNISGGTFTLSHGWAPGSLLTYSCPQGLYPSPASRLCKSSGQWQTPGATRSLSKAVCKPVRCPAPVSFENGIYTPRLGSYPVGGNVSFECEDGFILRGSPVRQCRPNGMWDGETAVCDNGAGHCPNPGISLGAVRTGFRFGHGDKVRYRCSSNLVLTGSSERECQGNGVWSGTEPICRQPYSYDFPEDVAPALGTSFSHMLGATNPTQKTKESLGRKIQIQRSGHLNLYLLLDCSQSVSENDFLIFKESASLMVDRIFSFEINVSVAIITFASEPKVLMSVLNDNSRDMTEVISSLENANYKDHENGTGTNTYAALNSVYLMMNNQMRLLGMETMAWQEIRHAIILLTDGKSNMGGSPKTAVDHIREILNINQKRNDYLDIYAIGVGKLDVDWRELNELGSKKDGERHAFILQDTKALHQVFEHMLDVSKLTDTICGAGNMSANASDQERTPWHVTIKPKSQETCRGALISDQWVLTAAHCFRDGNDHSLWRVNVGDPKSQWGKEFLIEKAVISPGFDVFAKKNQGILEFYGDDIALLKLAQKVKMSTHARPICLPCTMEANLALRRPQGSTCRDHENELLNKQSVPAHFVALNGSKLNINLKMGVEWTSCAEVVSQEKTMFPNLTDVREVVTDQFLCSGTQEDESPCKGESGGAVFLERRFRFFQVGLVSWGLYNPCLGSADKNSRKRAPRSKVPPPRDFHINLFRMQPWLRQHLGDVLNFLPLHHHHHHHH

B1: RF16-242 (antibody, human IgG4 S228P, lambda, V domains shown)
VH: EVQLLQSGAEVKKPGESLKISCKGSGYSFTSYWIGWVRQMPGKGLEWMGIIYPGDSDTRYSPSFQGQVTISADKSISTAYLQWSSLKASDTAMYYCARRGHYGDYFDYWGQGTLVTVSS
VL: SYELTQPPSVSVSPGQTARITCSGDALPKKYAYWYHQKSGQAPVLVIYEDRRRPSEIPERFSGSSSGTMATLTITGAQVEDEGVYFCYSRDRAGNQRVFGGGTQLTVLG
notes: pH-dependent anti-C2 antibody from a phage display library
Kd (human C2 I272A): 10.3 nM | Kd (human C2 E275A): 42.8 nM | Kd (human C2 K244A): 26.2 nM | Kd (human C2 V465A): 16.3 nM
